In patent US10494417B2, “Peptide inhibitors of BCR-ABL oligomerization” (University of Utah Research Foundation, priority 2014, dated 2019):
“Also recorded” adds a separate entry of the source.

Tests used:
[1] = test system: parental Ba/F3 cells; test: Proliferation of transfected parental Ba/F3 cells (MTS assay); assay type: cell-based, mouse; settings: for proliferation of parental Ba/F3 cells: MTS assay at 72 and 96 h, CCmut3 vs EV
Method: (§1) Stable recombinant Ba/F3 cells transduced with wild type p210 BCR-ABL1 (Daley, G. Q., et al. (1991) Proc. Natl. Acad. Sci. U.S.A. 88, 11335-11338), the kinase domain mutants p210^T315I p210^[…], or the compound mutant p210^E255V/T315I were as previously described (La Rosee, P., et al. (2002) Cancer Res. 62, 7149-7153; O'Hare, T., et al. (2004) Blood 104, 2532-2539). These cells were cultured in RPMI with 10% FBS, 1% penicillin, streptomycin, glutamine, and 0.1% gentamycin (RPMI1640). Additionally 0.1% MycoZap™ (Lonza Bio, Basel, Switzerland) was added to prevent mycoplasma contamination. The non-transduced parental Ba/F3 cell line was grown in RPMI1640 supplemented with 20% WEHI-3B conditioned medium as a source of murine IL-3 (Dexter, T. M., et al. (1980) J. Exp. Med. 152, 1036-1047). Ba/F3 cells were transfected with plasmid DNA using the Amaxa nucleofection system (Lonza Bio), following the manufacturer's instructions. Cells were sorted on a BD FACSAria cytometer (BD Biosciences, San Jose, Calif.) for double-positive cells expressing mCherry and GFP then returned to RPMI1640 for subsequent experiments.
(§2) Cell proliferation was assessed using the CellTiter 96® AQueous One Solution Cell Proliferation Assay (MTS assay, Promega) according to manufacturer instructions. Briefly, 5,000 viable cells were added to a single well in 96-well plate in 100 μL RPMI1640. Three independent samples were seeded in duplicate for each time point. […] In some experiments, cell proliferation was assessed using a Neubauer chamber and trypan blue dye exclusion.
(§3) Stable Ba/F3 cells transduced with native (p210) BCR-ABL1, the kinase domain mutants BCR-ABL1T315I, BCR-ABL1E255V, or the compound mutant BCR-ABL1E255V/T315I were cultured. […]
(§4) Cell proliferation was assessed using a […] viability assay (MTS assay) utilizing CellTiter 96® AQueous One Solution Cell Proliferation Assay (Promega) according to manufacturer instructions. […] Cell growth was assessed by MTS assay at 72 and 96 h. […] In patient sample experiments, cell proliferation was assessed by trypan blue exclusion.

[2] = test system: K562 cells; test: Colony forming assay of protein-treated K562 cells; assay type: cell-based, human; settings: proteins 30 μM, imatinib 1.0 μM; colonies counted after 7 days
Method: This experiment was carried out as before with the modifications noted below. […] 1×10^3 cells (in 1.1 mL) were seeded in a 6-well plate (CellStar), in duplicate for each treatment. 7 days after seeding cells, colonies were counted in a […] area per well. Independent treatments were tested 3 times in duplicate (n=3). All reagents for the CFA were purchased from Stem Cell Technologies, Vancouver, BC, Canada.

[3] = test system: Ba/F3 cells expressing BCR-ABL1T315I; test: Proliferation of transfected Ba/F3 BCR-ABL1 T315I cells (MTS assay); assay type: cell-based, mouse; settings: CCmut3 vs EV; for proliferation, in words: MTS assay at 72 and 96 h
Method: as §1, §2, §3, §4

[4] = test system: Ba/F3 cells expressing BCR-ABL1E255V/T315I; test: Proliferation of transfected Ba/F3 BCR-ABL1 E255V/T315I cells (MTS assay); assay type: cell-based, mouse; settings: MTS assay at 72 and 96 h, CCmut3 vs EV
Method: Stable recombinant Ba/F3 cells transduced with wild type p210 BCR-ABL1 (Daley, G. Q., et al. (1991) Proc. Natl. Acad. Sci. U.S.A. 88, 11335-11338), the kinase domain mutants p210^T315I p210^[…], or the compound mutant p210^E255V/T315I were as previously described (La Rosee, P., et al. (2002) Cancer Res. 62, 7149-7153; O'Hare, T., et al. (2004) Blood 104, 2532-2539). These cells were cultured in RPMI with 10% FBS, 1% penicillin, streptomycin, glutamine, and 0.1% gentamycin (RPMI1640). Additionally 0.1% MycoZap™ (Lonza Bio, Basel, Switzerland) was added to prevent mycoplasma contamination. […]
Cell proliferation was assessed using the CellTiter 96® AQueous One Solution Cell Proliferation Assay (MTS assay, Promega) according to manufacturer instructions. […] In some experiments, cell proliferation was assessed using a Neubauer chamber and trypan blue dye exclusion. […]
as §4

[5] = test system: Ba/F3 cells expressing BCR-ABL1E255V/T315I; test: Annexin V/7-AAD apoptosis assay in Ba/F3 BCR-ABL1 E255V/T315I cells; assay type: cell-based, mouse; settings: 72 h, CCmut3 vs EV
Method: (§5) For analysis of apoptosis and cell death, cells were pelleted and resuspended in Annexin V-binding buffer (BD Biosciences), stained with anti-Annexin V-APC (BD Biosciences or Life Technologies) and 7-AAD (BD Biosciences or Life Technologies) and analyzed on a BD FACSCanto flow cytometer. In addition to the APC and 7-AAD channels, GFP- and mCherry-positive cells were also recorded.
as §5, with “apoptosis and necrotic cell death,” for “apoptosis and cell death,”, “anti-Annexin V-APC and 7-AAD” for “anti-Annexin V-APC (BD Biosciences or Life Technologies) and 7-AAD”

B1: CCmut3: modified Bcr-Abl coiled-coil domain (residues 1-72) with mutations C38A, K39E, S41R, L45D, E48R, Q60E (protein)
chain: MVDPVGFAEAWKAQFPDSEPPRMELRSVGDIEQELERAEARIRRDEQRVNQERFRMIYLETLLAKEKKSYDR
B1 was tested. Which “proliferation of parental Ba/F3 cells” value [1] did it give?
Its value is “not affected; also recorded: No difference”.

What about the “proliferation of parental Ba/F3 cells” value ([1]; listed as CC^mut3) of the same molecule?
The value was “not affected; also recorded: No difference”.

And the “toxicity in BCR-ABL1-negative cells” value ([1]; parental Ba/F3 cells, FIGS. 38a, c, e (proliferation, apoptosis, colony formation))?
Its value is “no measurable toxicity”.

And the “colony forming (transformative ability)” value [2]?
The value was “ineffective at reducing cell proliferation and colony forming compared to untreated cells”.

And the reduction of proliferation ([3]; 96 h, MTS assay)?
Its reduction of proliferation is “approximately 3 fold”.

What about the “proliferation, in words” value [3] of the same molecule?
The value was “significant reduction of proliferative capacity; also recorded: lesser, yet significant difference was noted at the 72 h time point”.

What about the “proliferation, in words” value ([3]; listed as CC^mut3) of the same molecule?
The value was “significant reduction”.

And the “proliferation, in words” value [4]?
Its value is “small yet significant growth reduction at 96 h but not 72 h; also recorded: significantly reduced proliferation of compound mutant cells at 96 h”.

What about the “proliferation, in words” value ([4]; listed as CC^mut3) of the same molecule?
Its value is “significant growth reduction at 96 h; also recorded: smaller yet significant reduction in proliferation at 96 h”.

What about the “apoptosis, in words” value [5] of the same molecule?
Its value is “Enhanced apoptosis; also recorded: effectively induced apoptosis”.

What about the “apoptosis, in words” value ([5]; listed as CC^mut3) of the same molecule?
Its value is “significantly more apoptotic; also recorded: sensitive”.
